Where a chain is given by its changes, count along the chain named. Names may count otherwise.

B1: FIXa variant A103N/N105S/K247N/N249S/R318Y/R338E/R403E/E410N (enzyme)
light: YNSGKLEEFVQGNLERECMEEKCSFEEAREVFENTERTTEFWKQYVDGDQCESNPCLNGGSCKDDINSYECWCPFGFEGKNCELDVTCNIKNGRCEQFCKNSNDSKVVCSCTEGYRLAENQKSCEPAVPFPCGRVSVSQTSKLTR
heavy: VVGGEDAKPGQFPWQVVLNGKVDAFCGGSIVNEKWIVTAAHCVETGVKITVVAGEHNIEETEHTEQNRSVIRIIPHHNYNAAINKYNHDIALLELDEPLVLNSYVTPICIADKEYTNIFLKFGSGYVSGWGRVFHKGYSALVLQYLRVPLVDRATCLESTKFTIYNNMFCAGFHEGGRDSCQGDSGGPHVTEVEGTSFLTGIISWGEECAMKGKYGIYTKVSEYVNWIKNKTKLT
B2: FIXa variant K228N/K247N/N249S/R318Y/R338E/R403E/E410N (enzyme)
light: B1 light with N103A, S105N
heavy: B1 heavy with K48N
notes: also called K63N/K82N/N84S/R150Y/R170E/R233E/E240N
B3: FIXa variant D104N/K106S/K247N/N249S/R318Y/R338E/R403E/E410N (enzyme)
light: B1 light with N103A, D104N, S105N, K106S
heavy: B1 heavy
B4: FIXa variant R318Y/R338E/E410N/T412V (enzyme)
light: B1 light with N103A, S105N
heavy: B1 heavy with N67K, S69N, E223R, T232V
notes: also called R150Y/R170E/E240N/T242V
B5: FIXa variant I251S/R318Y/R338E/E410N (enzyme)
light: B1 light with N103A, S105N
heavy: B1 heavy with N67K, S69N, I71S, E223R
notes: also called I86S/R150Y/R170E/E240N; I251S/R318Y/E410N/R338E
B6: FIXa variant D104N/K106S/I251S/R318Y/R338E/E410N (enzyme)
light: B1 light with N103A, D104N, S105N, K106S
heavy: B1 heavy with N67K, S69N, I71S, E223R
B7: FIXa variant I251S/R318Y/R338E/R403E/E410N (enzyme)
light: B1 light with N103A, S105N
heavy: B1 heavy with N67K, S69N, I71S
notes: also called I86S/R150Y/R170E/R233E/E240N
B8: FIXa variant R318Y/R338E/E410S (enzyme)
light: B1 light with N103A, S105N
heavy: B1 heavy with N67K, S69N, E223R, N230S
notes: also called R150Y/R170E/E240S
B9: FIXa variant D104N/K106S/I251S/R318Y/R338E/R403E/E410N (enzyme)
light: B1 light with N103A, D104N, S105N, K106S
heavy: B1 heavy with N67K, S69N, I71S
B10: FIXa variant K228N/K247N/N249S (enzyme)
light: B1 light with N103A, S105N
heavy: B1 heavy with K48N, Y138R, E158R, E223R, N230E
notes: also called K63N/K82N/N84S
B11: FIXa variant K247N/N249S/N260S/R318Y/R338E/R403E/E410N (enzyme)
light: B1 light with N103A, S105N
heavy: B1 heavy with N80S
notes: also called K82N/N84S/N95S/R150Y/R170E/R233E/E240N
B12: FIXa variant K247N/N249S/N260S (enzyme)
light: B1 light with N103A, S105N
heavy: B1 heavy with N80S, Y138R, E158R, E223R, N230E
notes: also called K82N/N84S/N95S
B13: FIXa variant K247N/N249S/R318Y/R338E/R403E/E410N (enzyme)
light: B1 light with N103A, S105N
heavy: B1 heavy
notes: also called K82N/N84S/R150Y/R170E/R233E/E240N
B14: FIXa variant D104N/K106S/K247N/N249S/N260S (enzyme)
light: B1 light with N103A, D104N, S105N, K106S
heavy: B1 heavy with N80S, Y138R, E158R, E223R, N230E
B15: FIXa variant D104N/K106S/Y155F/K247N/N249S/N260S (enzyme)
light: B1 light with N103A, D104N, S105N, K106S
heavy: B1 heavy with N80S, Y138R, E158R, E223R, N230E
B16: FIXa variant Y155F/K247N/N249S/R318Y/R338E/R403E/E410N (enzyme)
light: B1 light with N103A, S105N
heavy: B1 heavy
B17: FIXa-R318Y/R338E/T343R/E410N (enzyme)
chain 1: B1 light with N103A, S105N
chain 2: B1 heavy with N67K, S69N, T163R, E223R
notes: also called R150Y/R170E/T175R/E240N (chymotrypsin numbering)
B18: FIXa-Y155F/R318Y/R338E/T343R/E410N (enzyme)
chain 1: B1 light with N103A, S105N
chain 2: B1 heavy with N67K, S69N, T163R, E223R
B19: FIXa-Y155F/K247N/N249S/R318Y/R338E/T343R (enzyme)
chain 1: B1 light with N103A, S105N
chain 2: B1 heavy with T163R, E223R, N230E
B20: FIXa-Y155F/R338E/T343R/R403E (enzyme)
chain 1: B1 light with N103A, S105N
chain 2: B1 heavy with N67K, S69N, Y138R, T163R, N230E
B21: FIXa-R318Y/R338E/T343R (enzyme)
chain 1: B1 light with N103A, S105N
chain 2: B1 heavy with N67K, S69N, T163R, E223R, N230E
notes: also called R150Y/R170E/T175R (chymotrypsin numbering); CB2679d
B22: FIXa-R338E/T343R/R403E (enzyme)
chain 1: B1 light with N103A, S105N
chain 2: B1 heavy with N67K, S69N, Y138R, T163R, N230E
notes: also called R170E/T175R/R233E (chymotrypsin numbering)
B23: FIXa-Y155F/K228N/K247N/N249S/R318Y/R338E/T343R/R403E/E410N (enzyme)
chain 1: B1 light with N103A, S105N
chain 2: B1 heavy with K48N, T163R
B24: FIXa-Y155F/R318Y/R338E/T343R (enzyme)
chain 1: B1 light with N103A, S105N
chain 2: B1 heavy with N67K, S69N, T163R, E223R, N230E
B25: FIXa-R338E/T343R/E410N (enzyme)
chain 1: B1 light with N103A, S105N
chain 2: B1 heavy with N67K, S69N, Y138R, T163R, E223R
notes: also called R170E/T175R/E240N (chymotrypsin numbering)
B26: FIXa-Y155F/R338E/T343R/E410N (enzyme)
chain 1: B1 light with N103A, S105N
chain 2: B1 heavy with N67K, S69N, Y138R, T163R, E223R
B27: FIXa-K228N/K247N/N249S/R318Y/R338E/T343R/R403E/E410N (enzyme)
chain 1: B1 light with N103A, S105N
chain 2: B1 heavy with K48N, T163R
notes: also called K63N/K82N/N84S/R150Y/R170E/T175R/R233E/E240N (chymotrypsin numbering)
B28: FIXa-K247N/N249S/R318Y/R338E/T343R (enzyme)
chain 1: B1 light with N103A, S105N
chain 2: B1 heavy with T163R, E223R, N230E
notes: also called K82N/N84S/R150Y/R170E/T175R (chymotrypsin numbering)
B29: FIXa-R338E/T343R/R403E/E410N (enzyme)
chain 1: B1 light with N103A, S105N
chain 2: B1 heavy with N67K, S69N, Y138R, T163R
notes: also called R170E/T175R/R233E/E240N (chymotrypsin numbering)
B30: FIXa-Y155F/R338E/T343R/R403E/E410N (enzyme)
chain 1: B1 light with N103A, S105N
chain 2: B1 heavy with N67K, S69N, Y138R, T163R

The target of one experiment is T1, Factor VIIIa (FVIIIa), from recombinant FVIII (Kogenate FS; Bayer healthcare) activated with alpha-thrombin (UniProt P00451 20-2351).
T1 sequence (looked up): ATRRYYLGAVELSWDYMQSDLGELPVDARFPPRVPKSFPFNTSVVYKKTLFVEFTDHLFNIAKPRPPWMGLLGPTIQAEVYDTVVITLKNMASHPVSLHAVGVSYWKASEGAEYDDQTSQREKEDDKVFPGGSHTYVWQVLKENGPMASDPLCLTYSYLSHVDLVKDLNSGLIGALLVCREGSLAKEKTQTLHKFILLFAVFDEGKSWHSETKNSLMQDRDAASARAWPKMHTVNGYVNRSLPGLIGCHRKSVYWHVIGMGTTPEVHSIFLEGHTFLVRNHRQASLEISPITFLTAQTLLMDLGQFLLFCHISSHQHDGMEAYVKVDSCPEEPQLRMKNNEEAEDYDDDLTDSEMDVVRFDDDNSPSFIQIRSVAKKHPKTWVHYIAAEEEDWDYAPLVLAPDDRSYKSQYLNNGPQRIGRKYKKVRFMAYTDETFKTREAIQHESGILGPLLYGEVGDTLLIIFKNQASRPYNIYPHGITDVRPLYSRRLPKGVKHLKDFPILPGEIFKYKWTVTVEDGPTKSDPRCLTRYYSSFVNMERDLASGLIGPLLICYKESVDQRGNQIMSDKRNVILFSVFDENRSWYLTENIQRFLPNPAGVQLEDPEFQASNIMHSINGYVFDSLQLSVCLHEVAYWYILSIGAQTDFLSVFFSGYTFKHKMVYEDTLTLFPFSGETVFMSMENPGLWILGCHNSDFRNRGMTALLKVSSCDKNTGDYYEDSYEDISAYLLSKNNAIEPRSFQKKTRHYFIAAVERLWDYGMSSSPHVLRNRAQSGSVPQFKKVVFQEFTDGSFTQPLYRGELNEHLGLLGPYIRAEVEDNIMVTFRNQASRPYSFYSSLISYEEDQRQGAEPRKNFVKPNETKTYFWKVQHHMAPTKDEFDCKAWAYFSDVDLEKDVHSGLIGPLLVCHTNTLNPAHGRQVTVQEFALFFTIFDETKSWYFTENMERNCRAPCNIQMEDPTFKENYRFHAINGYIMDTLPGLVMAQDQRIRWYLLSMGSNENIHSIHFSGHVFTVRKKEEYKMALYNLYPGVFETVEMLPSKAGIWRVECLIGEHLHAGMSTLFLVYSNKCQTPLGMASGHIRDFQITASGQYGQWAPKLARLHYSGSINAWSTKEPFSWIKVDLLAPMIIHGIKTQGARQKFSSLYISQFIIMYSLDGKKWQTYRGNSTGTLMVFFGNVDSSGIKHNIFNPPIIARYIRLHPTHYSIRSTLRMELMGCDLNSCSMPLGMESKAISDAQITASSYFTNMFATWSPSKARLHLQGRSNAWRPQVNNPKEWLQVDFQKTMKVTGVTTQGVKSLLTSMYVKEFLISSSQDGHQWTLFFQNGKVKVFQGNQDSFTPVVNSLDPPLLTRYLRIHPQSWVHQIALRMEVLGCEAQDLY
Nature of the experiment: ratio of KD-app of Catalyst Biosciences WT FIXa to KD-app of the variant, same Xase assay.
As to B1, the KD-WT/KD-mut turned out to be 1 fold.

As to B2, the KD-WT/KD-mut is 0.9 fold. Take B3: the KD-WT/KD-mut stood at 1.1 fold. Take B4: the KD-WT/KD-mut was 10.7 fold.

Regarding B5, the KD-WT/KD-mut stood at 16.7 fold. The same measure, in the same setting: for B6 the value was 7.7 fold; for B7, 1.5 fold.

B8: the KD-WT/KD-mut was 14.1 fold. Same read-out and setting: for B9 the value was 1.7 fold; for B10, 0.8 fold.

On to B11, for which the KD-WT/KD-mut came to 1.5 fold. As for B12, the KD-WT/KD-mut was found to be 0.6 fold.

Another experiment has as its target T1, Factor VIIIa (FVIIIa), from recombinant …. Briefly: apparent functional KD (KD-app): FX activation rate vs FVIIIa titration, fluorogenic Xase assay with PC/PS vesicles and Ca2+.
On to B1, for which the Kd came to 93.1 nM. The same measure, in the same setting: under B2 stands 100 nM. With B3, the Kd turned out to be 87.4 nM. Consider B4, for which the Kd was 8.9 nM.

B5: the Kd was 5.7 nM. Turning to B6, the Kd was determined as 12.4 nM.

On to B7, for which the Kd was 62.7 nM. For the molecule B13, the Kd was found to be 68.6 nM. As for B14, the Kd is 330 nM. B8: the Kd stood at 6.8 nM.

For the molecule B9, the Kd is 54.7 nM.

Turning to B10, the Kd turned out to be 113 nM. On to B15, for which the Kd was determined as 142 nM.

For the molecule B11, the Kd was found to be 65 nM.

As to B12, the Kd is 147 nM. As to B16, the Kd came out at 45.8 nM.

For the next experiment, the target named is T2, Factor VIIIa (recombinant FVIII, Kogenate FS, activated with alpha-thrombin) (UniProt P00451 20-2351).
T2 construct: also called FVIIIa
T2 sequence (looked up): T1 sequence (looked up)
Briefly: functional cofactor affinity KD-app: fluorogenic FX activation (Xase) assay, FVIIIa titrated, PC/PS vesicles, saturating FX.
Turning to B17, the Kd was determined as 6.1 nM. Take B18: the Kd was 7.4 nM.

Take B19: the Kd came out at 14 nM. Still for that read-out and setting: under B20 stands 72.1 nM. Consider B21, for which the Kd came out at 9.8 nM. On to B22, for which the Kd was 55 nM. On to B23, for which the Kd was 37 nM. As to B24, the Kd was determined as 8.4 nM. In the case of B25, the Kd was 7.5 nM.

For B26, the Kd came to 8.5 nM.

On to B27, for which the Kd came to 29.1 nM.

For B28, the Kd amounted to 14.7 nM. Still for that read-out and setting: for B29 the value was 29.4 nM.

For B30, the Kd amounted to 28.5 nM.

For the origin of these results see US20210238260A1 (published 2021).
